*1 amine or outer side, *2 acyl side, *3 side chain or, on linkers, in order; H or OH if unused. Bridges are numbered along the chain shown (N, C = ends). Where no end group is shown, it is not given here. The star is where a group is joined. X2 = (S)‑4‑Carboxy‑4‑(19-carboxynonadecanoylamino)butyryl, O=C(O)CCCCCCCCCCCCCCCCCCC(=O)N[C@@H](CCC(=O)*)C(=O)O; X1 = (S)‑4‑Carboxy‑4‑(17-carboxyheptadecanoylamino)butyryl, O=C(O)CCCCCCCCCCCCCCCCC(=O)N[C@@H](CCC(=O)*)C(=O)O; C20 diacid = O=C(O)CCCCCCCCCCCCCCCCCCC(=O)*; C18 diacid = O=C(O)CCCCCCCCCCCCCCCCC(=O)*; γGlu = O=C(O)[C@H](CCC(=O)[*:2])N[*:1]; AEEA = NCCOCCOCC(=O)O
T1: Amylin 3(a) receptor (human calcitonin receptor (CTa) with RAMP-3) (human, UniProt P30988 25-474; O60896 24-148, limits assumed)
T1 sequence (looked up) 1: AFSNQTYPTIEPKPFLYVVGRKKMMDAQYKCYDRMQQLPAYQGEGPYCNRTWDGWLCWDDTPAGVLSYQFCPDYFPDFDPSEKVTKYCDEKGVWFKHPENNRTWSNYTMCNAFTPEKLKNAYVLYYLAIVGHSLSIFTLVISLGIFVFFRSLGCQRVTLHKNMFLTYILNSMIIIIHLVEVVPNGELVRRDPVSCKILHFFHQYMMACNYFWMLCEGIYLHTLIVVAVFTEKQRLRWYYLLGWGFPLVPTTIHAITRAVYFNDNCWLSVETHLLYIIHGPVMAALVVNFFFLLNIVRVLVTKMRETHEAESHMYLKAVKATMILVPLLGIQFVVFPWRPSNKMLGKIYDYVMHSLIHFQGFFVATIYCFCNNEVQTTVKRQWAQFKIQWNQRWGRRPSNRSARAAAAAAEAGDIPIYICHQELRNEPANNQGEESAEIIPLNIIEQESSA
T1 sequence (looked up) 2: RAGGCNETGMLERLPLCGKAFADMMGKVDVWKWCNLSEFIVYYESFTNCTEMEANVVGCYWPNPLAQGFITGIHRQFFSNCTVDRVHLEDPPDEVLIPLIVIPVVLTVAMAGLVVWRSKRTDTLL


Target: T1, Amylin 3(a) receptor (human calcitonin …)
Assay: cell-based or functional assay

Row | Binder | Potency Luciferase [nM]
1 | X2-ERHRCNTATCATQRLANFLHHSSNNFGPILPPTNVGSNTY-NH2 (disulfide 5-10; SMILES CC[C@H](C)[C@H](NC(=O)[C@@H]1CCCN1C(=O)CNC(=O)[C@H](Cc1ccccc1)NC(=O)[C@H](CC(N)=O)NC(=O)[C@H](CC(N)=O)NC(=O)[C@H](CO)NC(=O)[C@H](CO)NC(=O)[C@H](Cc1c[nH]cn1)NC(=O)[C@H](Cc1c[nH]cn1)NC(=O)[C@H](CC(C)C)NC(=O)[C@H](Cc1ccccc1)NC(=O)[C@H](CC(N)=O)NC(=O)[C@H](C)NC(=O)[C@H](CC(C)C)NC(=O)[C@H](CCCNC(=N)N)NC(=O)[C@H](CCC(N)=O)NC(=O)[C@@H](NC(=O)[C@H](C)NC(=O)[C@@H]1CSSC[C@H](NC(=O)[C@H](CCCNC(=N)N)NC(=O)[C@H](Cc2c[nH]cn2)NC(=O)[C@H](CCCNC(=N)N)NC(=O)[C@H](CCC(=O)O)NC(=O)CC[C@H](NC(=O)CCCCCCCCCCCCCCCCCCC(=O)O)C(=O)O)C(=O)N[C@@H](CC(N)=O)C(=O)N[C@@H]([C@@H](C)O)C(=O)N[C@@H](C)C(=O)N[C@@H]([C@@H](C)O)C(=O)N1)[C@@H](C)O)C(=O)N[C@@H](CC(C)C)C(=O)N1CCC[C@H]1C(=O)N1CCC[C@H]1C(=O)N[C@H](C(=O)N[C@@H](CC(N)=O)C(=O)N[C@H](C(=O)NCC(=O)N[C@@H](CO)C(=O)N[C@@H](CC(N)=O)C(=O)N[C@H](C(=O)N[C@@H](Cc1ccc(O)cc1)C(N)=O)[C@@H](C)O)C(C)C)[C@@H](C)O) [N-alpha-[(S)-4-Carboxy-4-(19-carboxynonadecanoylamino)butyryl]-Glu-Arg-His-[Arg1,His17]-pramlintide] | 0.1
2 | X2-RHRCNTATCATQRLANFLHHSSNNFGPILPPTNVGSNTY-NH2 (disulfide 4-9; SMILES CC[C@H](C)[C@H](NC(=O)[C@@H]1CCCN1C(=O)CNC(=O)[C@H](Cc1ccccc1)NC(=O)[C@H](CC(N)=O)NC(=O)[C@H](CC(N)=O)NC(=O)[C@H](CO)NC(=O)[C@H](CO)NC(=O)[C@H](Cc1c[nH]cn1)NC(=O)[C@H](Cc1c[nH]cn1)NC(=O)[C@H](CC(C)C)NC(=O)[C@H](Cc1ccccc1)NC(=O)[C@H](CC(N)=O)NC(=O)[C@H](C)NC(=O)[C@H](CC(C)C)NC(=O)[C@H](CCCNC(=N)N)NC(=O)[C@H](CCC(N)=O)NC(=O)[C@@H](NC(=O)[C@H](C)NC(=O)[C@@H]1CSSC[C@H](NC(=O)[C@H](CCCNC(=N)N)NC(=O)[C@H](Cc2c[nH]cn2)NC(=O)[C@H](CCCNC(=N)N)NC(=O)CC[C@H](NC(=O)CCCCCCCCCCCCCCCCCCC(=O)O)C(=O)O)C(=O)N[C@@H](CC(N)=O)C(=O)N[C@@H]([C@@H](C)O)C(=O)N[C@@H](C)C(=O)N[C@@H]([C@@H](C)O)C(=O)N1)[C@@H](C)O)C(=O)N[C@@H](CC(C)C)C(=O)N1CCC[C@H]1C(=O)N1CCC[C@H]1C(=O)N[C@H](C(=O)N[C@@H](CC(N)=O)C(=O)N[C@H](C(=O)NCC(=O)N[C@@H](CO)C(=O)N[C@@H](CC(N)=O)C(=O)N[C@H](C(=O)N[C@@H](Cc1ccc(O)cc1)C(N)=O)[C@@H](C)O)C(C)C)[C@@H](C)O) [N-alpha-[(S)-4-Carboxy-4-(19-carboxynonadecanoylamino)butyryl]-Arg-His[Arg1,His17]-pramlintide] | 0.1
3 | {C18 diacid-γGlu-AEEA-AEEA}-CNTATCATQRLANFLHHSSNNFGPILPPTNVGSNTY-NH2 (disulfide 1-6) | 0.04
4 | {C20 diacid-γGlu}-RCNTATCATQRLANFLHHSSNNFGPILPPTNVGSNTY-NH2 (disulfide 2-7; SMILES CC[C@H](C)[C@H](NC(=O)[C@@H]1CCCN1C(=O)CNC(=O)[C@H](Cc1ccccc1)NC(=O)[C@H](CC(N)=O)NC(=O)[C@H](CC(N)=O)NC(=O)[C@H](CO)NC(=O)[C@H](CO)NC(=O)[C@H](Cc1c[nH]cn1)NC(=O)[C@H](Cc1c[nH]cn1)NC(=O)[C@H](CC(C)C)NC(=O)[C@H](Cc1ccccc1)NC(=O)[C@H](CC(N)=O)NC(=O)[C@H](C)NC(=O)[C@H](CC(C)C)NC(=O)[C@H](CCCNC(=N)N)NC(=O)[C@H](CCC(N)=O)NC(=O)[C@@H](NC(=O)[C@H](C)NC(=O)[C@@H]1CSSC[C@H](NC(=O)[C@H](CCCNC(=N)N)NC(=O)CC[C@H](NC(=O)CCCCCCCCCCCCCCCCCCC(=O)O)C(=O)O)C(=O)N[C@@H](CC(N)=O)C(=O)N[C@@H]([C@@H](C)O)C(=O)N[C@@H](C)C(=O)N[C@@H]([C@@H](C)O)C(=O)N1)[C@@H](C)O)C(=O)N[C@@H](CC(C)C)C(=O)N1CCC[C@H]1C(=O)N1CCC[C@H]1C(=O)N[C@H](C(=O)N[C@@H](CC(N)=O)C(=O)N[C@H](C(=O)NCC(=O)N[C@@H](CO)C(=O)N[C@@H](CC(N)=O)C(=O)N[C@H](C(=O)N[C@@H](Cc1ccc(O)cc1)C(N)=O)[C@@H](C)O)C(C)C)[C@@H](C)O) [N-alpha-[(S)-4-Carboxy-4-(19-carboxynonadecanoylamino)butyryl]-[Arg1,His17]-pramlintide] | 0.3
5 | HHRCNTATCATQRLANFLHHSSNNFGPILPPTNVGSNTY-NH2 (disulfide 4-9; not fully specified (N-terminus); printed as N-alpha-[(S)-4-Carboxy-4-(19-carboxynonadecanoylamino)butyryl]-His-His-[Arg1,His17]-pramlintide) [N-alpha-[(S)-4-Carboxy-4-(19-carboxynonadecanoylamino)butyryl]-His-His-[Arg1,His17]-pramlintide] | 0.09
6 | X1-HHHCNTATCATQRLANFLHHSSNNFGPILPPTNVGSNTY-NH2 (disulfide 4-9; SMILES CC[C@H](C)[C@H](NC(=O)[C@@H]1CCCN1C(=O)CNC(=O)[C@H](Cc1ccccc1)NC(=O)[C@H](CC(N)=O)NC(=O)[C@H](CC(N)=O)NC(=O)[C@H](CO)NC(=O)[C@H](CO)NC(=O)[C@H](Cc1c[nH]cn1)NC(=O)[C@H](Cc1c[nH]cn1)NC(=O)[C@H](CC(C)C)NC(=O)[C@H](Cc1ccccc1)NC(=O)[C@H](CC(N)=O)NC(=O)[C@H](C)NC(=O)[C@H](CC(C)C)NC(=O)[C@H](CCCNC(=N)N)NC(=O)[C@H](CCC(N)=O)NC(=O)[C@@H](NC(=O)[C@H](C)NC(=O)[C@@H]1CSSC[C@H](NC(=O)[C@H](Cc2c[nH]cn2)NC(=O)[C@H](Cc2c[nH]cn2)NC(=O)[C@H](Cc2c[nH]cn2)NC(=O)CC[C@H](NC(=O)CCCCCCCCCCCCCCCCC(=O)O)C(=O)O)C(=O)N[C@@H](CC(N)=O)C(=O)N[C@@H]([C@@H](C)O)C(=O)N[C@@H](C)C(=O)N[C@@H]([C@@H](C)O)C(=O)N1)[C@@H](C)O)C(=O)N[C@@H](CC(C)C)C(=O)N1CCC[C@H]1C(=O)N1CCC[C@H]1C(=O)N[C@H](C(=O)N[C@@H](CC(N)=O)C(=O)N[C@H](C(=O)NCC(=O)N[C@@H](CO)C(=O)N[C@@H](CC(N)=O)C(=O)N[C@H](C(=O)N[C@@H](Cc1ccc(O)cc1)C(N)=O)[C@@H](C)O)C(C)C)[C@@H](C)O) [N-alpha-[(S)-4-Carboxy-4-(17-carboxyheptadecanoylamino)butyryl]-His-His-[His1,His17]-pramlintide] | 0.05
7 | {5‑carboxypentanoyl-γGlu}-HHHCNTATCATQRLANFLHHSSNNFGPILPPTNVGSNTY-NH2 (disulfide 4-9) [N-alpha-[(S)-4-Carboxy-4-(5-carboxypentanoylamino)butyryl]-His-His-[His1,His17]-pramlintide] | 0.04
8 | {C20 diacid-γGlu}-KCNTATCATQRLANFLHHSSNNFGPILPPTNVGSNTY-NH2 (disulfide 2-7) [N-alpha-[(S)-4-Carboxy-4-(19-carboxynonadecanoylamino)butyryl]-[His17]-pramlintide] | 0.2
9 | {C20 diacid-γGlu-AEEA}-HHRCNTATCATQRLANFLRHSSQNFGPILPPTNVGSNTY-NH2 (disulfide 4-9; SMILES CC[C@H](C)[C@H](NC(=O)[C@@H]1CCCN1C(=O)CNC(=O)[C@H](Cc1ccccc1)NC(=O)[C@H](CC(N)=O)NC(=O)[C@H](CCC(N)=O)NC(=O)[C@H](CO)NC(=O)[C@H](CO)NC(=O)[C@H](Cc1c[nH]cn1)NC(=O)[C@H](CCCNC(=N)N)NC(=O)[C@H](CC(C)C)NC(=O)[C@H](Cc1ccccc1)NC(=O)[C@H](CC(N)=O)NC(=O)[C@H](C)NC(=O)[C@H](CC(C)C)NC(=O)[C@H](CCCNC(=N)N)NC(=O)[C@H](CCC(N)=O)NC(=O)[C@@H](NC(=O)[C@H](C)NC(=O)[C@@H]1CSSC[C@H](NC(=O)[C@H](CCCNC(=N)N)NC(=O)[C@H](Cc2c[nH]cn2)NC(=O)[C@H](Cc2c[nH]cn2)NC(=O)COCCOCCNC(=O)CC[C@H](NC(=O)CCCCCCCCCCCCCCCCCCC(=O)O)C(=O)O)C(=O)N[C@@H](CC(N)=O)C(=O)N[C@@H]([C@@H](C)O)C(=O)N[C@@H](C)C(=O)N[C@@H]([C@@H](C)O)C(=O)N1)[C@@H](C)O)C(=O)N[C@@H](CC(C)C)C(=O)N1CCC[C@H]1C(=O)N1CCC[C@H]1C(=O)N[C@H](C(=O)N[C@@H](CC(N)=O)C(=O)N[C@H](C(=O)NCC(=O)N[C@@H](CO)C(=O)N[C@@H](CC(N)=O)C(=O)N[C@H](C(=O)N[C@@H](Cc1ccc(O)cc1)C(N)=O)[C@@H](C)O)C(C)C)[C@@H](C)O) | 0.1
10 | CNTATCATQRLANFLHHSSNNFGPILPPTNVGSNTY-NH2 (disulfide 1-6; not fully specified (N-terminus); printed as N-alpha-[2-(2-{2-[2-(2-{2-[(S)-4-Carboxy-4-(19-carboxyheptadecanoylamino)butyrylamino]ethoxy}ethoxy)acetylamino]ethoxy}ethoxy)acetyl]-[His17]-pramlintide (2-37)) | 0.07

Reference: patent US20110105394A1 (Novo Nordisk, published 2011)
